Experimental data from PMC12363175.

Biological target: CX1 S ectodomain with stabilizing mutations
Assay: AUC

Sequence of peptidase domain (PD) of hACE2 (Q9BYF1 19-615): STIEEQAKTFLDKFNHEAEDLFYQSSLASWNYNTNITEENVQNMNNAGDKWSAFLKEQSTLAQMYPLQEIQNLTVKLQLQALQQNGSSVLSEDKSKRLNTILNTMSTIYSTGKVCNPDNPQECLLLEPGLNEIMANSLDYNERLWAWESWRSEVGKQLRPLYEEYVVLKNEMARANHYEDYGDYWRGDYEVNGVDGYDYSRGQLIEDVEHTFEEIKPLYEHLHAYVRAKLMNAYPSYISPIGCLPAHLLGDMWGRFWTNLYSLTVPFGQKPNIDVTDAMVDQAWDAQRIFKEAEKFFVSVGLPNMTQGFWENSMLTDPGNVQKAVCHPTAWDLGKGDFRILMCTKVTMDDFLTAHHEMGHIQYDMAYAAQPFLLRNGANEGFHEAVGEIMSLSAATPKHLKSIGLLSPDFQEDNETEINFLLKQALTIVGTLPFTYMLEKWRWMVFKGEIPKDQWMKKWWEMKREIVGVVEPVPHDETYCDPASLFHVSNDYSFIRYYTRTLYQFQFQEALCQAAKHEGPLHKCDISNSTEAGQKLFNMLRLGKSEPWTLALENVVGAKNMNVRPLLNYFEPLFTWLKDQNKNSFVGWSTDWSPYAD

“peptidase domain (PD) of hACE2 (from UniProt Q9BYF1 19-615) (domain or fragment)” was tested, and the stoichiometry N (hACE2 molecules per S trimer) was 2.
